Experimental data as given in patent US20240011101A1, “METHOD OF DETERMINING RESISTANCE TO CHECKPOINT INHIBITOR THERAPIES” (Shattuck Labs, Inc., priority 2020, published 2024).

Legend:
[1] = tested on: wild type CT26 cells; assay: RNA-seq gene expression (TPM) of wild type CT26 cells cultured with or without IFNγ; type: cell-based; conditions: 20 ng/mL mouse IFNγ, 24 hours, vs without IFNγ
Procedure: (§1) Three distinct vials of parental CT26 cells (ATCC; “experimental replicates”), two independently isolated tumors from “2nd round” mice, four independently isolated tumors from “4th round” mice (both “biological replicates”) were cultured with or without 20 ng/mL of mouse IFNγ (Biolegend) for 24 hours at […]. The following day, RNA was isolated from cells using Qiagen RNeasy reagents according to manufacturer's instructions, including QIASHREDDER homogenization and on-column DNaseI digestion. Isolated RNA was subjected to RNA-seq and data analysis. Briefly, sequencing libraries were generated and sequenced on an ILLUMINA HISEQ (2×150 paired end reads), targeting >20×10^6 reads per sample. Sequences were trimmed using TRIMMOMATIC v.0.36 and mapped to the Mus musculus GRCm38 reference genome using the STAR ALIGNER v.2.5.2b. Unique gene hit counts were calculated by using FEATURECOUNTS from the SUBREAD package v.1.5.2. Only unique reads that fell within exon regions were counted. Differential gene expression was determined using DESeq2, and the Wald test was used to generate p-values and log 2 fold changes; with log 2 fold change >1 and adjusted p-values <0.05 as cutoffs for significance.
Next, the effect of IFNγ on the expression of certain genes that are differentially expressed in the 4th generation anti-PD-1 resistant cells compared to the wild type CT26 cells was studied. Briefly, the parental CT26 cells, second generation anti-PD-1 resistant cells and 4th generation anti-PD-1 resistant cells were cultured with or without 20 ng/mL of mouse IFNγ (Biolegend) for 24 hours at 37° C./[…]. The following day, RNA was isolated from cells using Qiagen RNeasy reagents according to manufacturer's instructions, including QIASHREDDER homogenization and on-column DNaseI digestion. Isolated RNA was subjected to RNA-seq and data analysis. Briefly, sequencing libraries were generated and sequenced on an ILLUMINA HISEQ (2×150 paired end reads), targeting >20×10^6 reads per sample. Sequences were trimmed using TRIMMOMATIC v.0.36 and mapped to the Mus musculus GRCm38 reference genome using the STAR ALIGNER v.2.5.2b. Unique gene hit counts were calculated by using FEATURECOUNTS from the SUBREAD package v.1.5.2. Only unique reads that fell within exon regions were counted. Differential gene expression was determined using DESeq2, and the Wald test was used to generate p-values and log 2 fold changes; with log 2 fold change >1 and adjusted p-values <0.05 as cutoffs for significance.

[2] = tested on: 4th generation anti-PD-1 resistant cells; assay: RNA-seq gene expression (TPM) of 4th generation anti-PD-1 resistant CT26 cells cultured with or without IFNγ; type: cell-based, Mus musculus
Procedure: as §1
Next the transcriptomic profile of the 2nd and 4th generation anti-PD-1 resistant cell lines was studied by comparison with each other and with an anti-PD-1 primarily resistant cell line. The B16.F10 murine melanoma tumor cell line was used as a model of anti-PD-1 “primary resistance,” as these tumors are not responsive to anti-PD-1 therapy. Three distinct vials of parental CT26 cells (ATCC; “experimental replicates”), two independently isolated tumors from “2nd round” mice, four independently isolated tumors from “4th round” mice (both “biological replicates”), and two distinct vials of parental B16.F10 cells (ATCC; “experimental replicates were cultured with or without 20 ng/mL of mouse IFNγ (Biolegend) for 24 hours at 37° C./5% CO2 to assess in vitro responsiveness. This mimics how tumor cells respond in vivo, as immune cell infiltrate and secrete effector cytokines like IFNγ. The following day, RNA was isolated from cells using Qiagen RNeasy reagents according to manufacturers instructions, including QIASHREDDER homogenization and on-column DNaseI digestion. Isolated RNA was subjected to RNA-seq and data analysis. Briefly, sequencing libraries were generated and sequenced on an ILLUMINA HISEQ (2×150 paired end reads), targeting >20×10^6 reads per sample. Sequences were trimmed using TRIMMOMATIC v.0.36 and mapped to the Mus musculus GRCm38 reference genome using the STAR ALIGNER v.2.5.2b. Unique gene hit counts were calculated by using FEATURECOUNTS from the SUBREAD package v.1.5.2. Only unique reads that fell within exon regions were counted. Differential gene expression was determined using DESeq2, and the Wald test was used to generate p-values and log 2 fold changes; with log 2 fold change >1 and adjusted p-values <0.05 as cutoffs for significance. The DEGs were identified between untreated and IFNγ treated parental CT26. As shown in FIG. 4A (Left Panel), Log 2 fold-change was plotted in the heatmap and genes are hierarchical clustered based on parental CT26. Of these, 338 genes had usable data from the other datasets; and those values are shown in the other columns (FIG. 4A (Left Panel)). Genes separated into 3 major clusters (FIG. 4A (Left Panel)). Associated genes were input into PANTHER to identify pathways associated with the dysregulated genes and the GO pathways associated with the DEGs were identified. As shown in FIG. 4A (Right Panel), the upregulation of expression of the genes associated with following GO pathways was enriched in 2nd generation cells and 4th generation cells compared to both parental CT26 cells and B16.F10 cells: L-phenyl alanine catabolic process, phospholipid efflux, tyrosine catabolic process, positive regulation of transcription from RNA polymerase II promoter in response to acidic pH, and drug export. […]

B1: IFNγ: mouse IFNγ (Biolegend), cytokine added to cell cultures at 20 ng/mL for 24 hours (protein, UniProt P01580 23-155, looked up)
Interferon gamma: HGTVIESLESLNNYFNSSGIDVEEKSLFLDIWRNWQKDGDMKILQSQIISFYLRLFEVLKDNQAISNNISVIESHLITTFFSNSKAKKDAFMSIAKFEVNNPQVQRQAFNELIRVVHQLLPESSLRKRKRSRC
B1 was tested, and the “expression of Cd274 (PD-L1)” value ([1]; FIG. 5A) was “increased”, the “expression of B2M” value ([1]; FIG. 5B) was “increased” and the “expression of Trim7” value ([1]; FIG. 5C) was “increased”. For the same molecule, the “expression of Lrg1” value ([1]; FIG. 5D) was “increased”, the “expression of Stat1” value ([1]; FIG. 7A) was “increased” and the “expression of Stat2” value ([1]; FIG. 7B) was “increased”. The “expression of Irf1” value ([1]; FIG. 7C) was “increased”, the “expression of Tap1” value ([1]; FIG. 7D) was “increased” and the “expression of Ccl5 (RANTES)” value ([1]; FIG. 9A) was “increased”. For the same molecule, the “expression of Cxcl10 (IP-10)” value ([1]; FIG. 9B) was “increased”, the “expression of Ifnb1” value ([1]; FIG. 9C) was “increased” and the “expression of type I and type II interferon genes (baseline hyperactivated)” value ([2]; CT26 anti-PD-1 resistant cells challenged with IFNγ (20 ng/mL, 24 hours), FIG. 4B) was “downregulate”. The “expression of Trim7” value ([2]; in response to IFNγ (20 ng/mL, 24 hours), FIG. 5C) was “overexpressed”, the “expression of Lrg1” value ([2]; in response to IFNγ (20 ng/mL, 24 hours), FIG. 5D) was “overexpressed” and the “expression of CD274” value ([2]; in the presence of IFNγ (20 ng/mL, 24 hours), FIG. 5A) was “repressed”. The “expression of B2m” value ([2]; in the presence of IFNγ (20 ng/mL, 24 hours), FIG. 5B) was “repressed”, the “expression of Stat1” value ([2]; in the presence of IFNγ (20 ng/mL, 24 hours), FIG. 7A) was “repressed” and the “expression of Stat2” value ([2]; in the presence of IFNγ (20 ng/mL, 24 hours), FIG. 7B) was “repressed”. The “expression of Irf1” value ([2]; in the presence of IFNγ (20 ng/mL, 24 hours), FIG. 7C) was “repressed”, the “expression of Tap1” value ([2]; in the presence of IFNγ (20 ng/mL, 24 hours), FIG. 7D) was “repressed” and the “expression of Ccl5 (RANTES)” value ([2]; in the presence of IFNγ (20 ng/mL, 24 hours), FIG. 9A) was “repressed”. The “expression of Cxcl10 (IP-10)” value ([2]; in the presence of IFNγ (20 ng/mL, 24 hours), FIG. 9B) was “repressed” and the “expression of Ifnb1” value ([2]; in the presence of IFNγ (20 ng/mL, 24 hours), FIG. 9C) was “repressed”.
